{"source": "patent US20100190698A1", "about": "(PHYLOGICA, published 2010)", "data": [{"molecular_target": "c-Jun (Jun dimers as AP-1 moieties, endogenous in K562/AP1-Luc cells) (UniProt P05412 1-331)", "sequence (P05412 whole entry)": "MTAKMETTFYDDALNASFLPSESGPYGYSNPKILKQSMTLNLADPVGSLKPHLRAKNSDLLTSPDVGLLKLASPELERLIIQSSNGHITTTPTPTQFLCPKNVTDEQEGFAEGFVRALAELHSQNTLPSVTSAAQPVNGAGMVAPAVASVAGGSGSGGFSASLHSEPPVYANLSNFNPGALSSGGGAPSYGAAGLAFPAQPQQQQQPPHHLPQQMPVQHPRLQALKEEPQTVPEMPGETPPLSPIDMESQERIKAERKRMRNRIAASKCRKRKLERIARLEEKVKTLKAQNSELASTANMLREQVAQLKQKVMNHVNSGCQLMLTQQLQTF", "test": "cell-based or functional assay", "values": [{"binder": "RSDYKDDDDKGLQGRRRQGYQSIKP", "note": "[PYC36]", "AP-1 reporter activity (luciferase, K562/AP1-Luc cells), of the level observed for the control sample": "~44 % of control"}, {"binder": "RSDYKDDDDKGLQGRRQPGQQPQGRWSGRALPAHR", "note": "[PYC38/39]", "AP-1 reporter activity (luciferase, K562/AP1-Luc cells), of the level observed for the control sample": "~47 % of control"}, {"binder": "RSDYKDDDDKVSINQEHHRLLPL", "note": "[PYC41]", "AP-1 reporter activity (luciferase, K562/AP1-Luc cells), of the level observed for the control sample": "~48 % of control"}, {"binder": "RSDYKDDDDKAYQSIRSGGIESSSKRER", "note": "[PYC35]", "AP-1 reporter activity (luciferase, K562/AP1-Luc cells), of the level observed for the control sample": "~35 % of control"}]}]}
